According to patent US20030017502A1, “Methods involving the use of capG as a diagnostic marker and methods for the identification of capG modulators for the treatment and prevention of osteoporosis and related disease states” (priority 2001, published 2003):

Test system: capG phosphorylation in RAW 264 cells
Assay: two-dimensional anti-phosphotyrosine Western blot of RAW 264 cell lysates with and without RANKL stimulation and inhibitor pretreatment
Type: cell-based, murine
Conditions: RAW 264 cells stimulated with RANKL versus unstimulated control
Protocol: RAW 264 cells were obtained from Bristol Myers Squibb Department of Metabolic Diseases. The cells were grown in minimal essential media supplemented with 5% fetal bovine serum and 1% nonessential amino acids. For assay purposes, RAW 264 cells were starved for 5 hours in serum free media and then cultured in media containing 2% fetal bovine serum and RANK ligand. When inhibitors were used, as set forth below, the cells were pre-exposed to the inhibitor for one hour prior to RANKL stimulation. To identify RANKL specific tyrosine phosphorylation, RAW264 cells were treated with RANKL in the presence and absence of PP1 [4-Amino-5-(4-methylphenyl)-7-(t-butyl)pyrazolo[3,4-d]pyrimidine], a specific inhibitor of pp60src and wortmannin, a specific inhibitor of PI3kinase (Lakkakorpi, P. T. et al., “Phosphatidylinositol 3-kinase association with the osteoclast cytoskeleton, and its involvement in osteoclast attachment and spreading”. Exp. Cell Res. 237(2):296-306 (1997)), and cell lysates evaluated by proteomic analysis. Cell lysates were separated by two-dimensional electrophoresis in duplicate and transferred to PVDF membranes. […] 35(6):672-682 (2000), for subsequent proteomic analysis with the corresponding membrane analyzed by western blotting using anti-phosphotyrosine antibody. […] Maximal fluorescence incorporation occurred within 4 hours. […]

B1: RANKL: ligand recognized by receptor activator of NF-κB (RANK), leads to osteoclast differentiation (protein, UniProt O14788 140-317, looked up)
Tumor necrosis factor ligand …: IRAEKAMVDGSWLDLAKRSKLEAQPFAHLTINATDIPSGSHKVSLSSWYHDRGWAKISNMTFSNGKLIVNQDGFYYLYANICFRHHETSGDLATEYLQLMVYVTKTSIKIPSSHTLMKGGSTKYWSGNSEFHFYSINVGGFFKLRSGEEISIEVSNPSLLDPDQDATYFGAFKVRDID
- capG phosphorylation on stimulation: causes capG 102 phosphorylation
